Common to all, as to experiment: cell-based or functional assay
Experiment [1] concerns the target Zebrafish tac3 receptor (zebrafish).
In experiment [2] the target is Salmon tac3 receptor (salmon).
Experiment [3] concerns the target Tilapia tac3 receptor (tilapia).

In the case of zebrafish NKB (peptide), the CRE-LUC (COS-7 cells transfected with zebrafish tac3 receptor) in experiment [1] was above 3 fold. Turning to tilapia NKB (peptide), the luciferase activity (CRE-Luc, COS-7 cells transfected with salmon tac3r) in experiment [2] worked out at 1.8 fold. The luciferase activity (CRE-Luc reporter, COS-7 cells transfected with tilapia tac3 receptor) in experiment [3] is 1.8 fold.

Take Salmon NKB (slNKB) (peptide): the EC50 of SRE-Luciferase activity (COS7 cells expressing slNKB receptor) in experiment [2] stood at 1.03 nM.

The record behind these values is US20190169256A1.
